Measured values reported in paper PMC10858482.

Tests used:
[1] = target: MP-3fc (miniACE2-(GGGGS)3-coiled-coil, trivalent); test: SEC
[2] = target: MP-3ff (miniACE2-(GGGGS)3-foldon, trivalent) (bacteriophage T4); test: SEC
[3] = target: MP-3rc (miniACE2-(EAAAK)3-coiled-coil, trivalent); test: SEC
[4] = target: MP-3rf (miniACE2-(EAAAK)3-foldon, trivalent) (bacteriophage T4); test: SEC
[5] = target: MP-5fc (miniACE2-(GGGGS)5-coiled-coil, trivalent); test: SEC
[6] = target: MP-5ff (miniACE2-(GGGGS)5-foldon, trivalent) (bacteriophage T4); test: SEC
[7] = target: RBD of the S protein of SARS-CoV-2 (Wuhan-Hu-1) (SARS-CoV-2 (Wuhan-Hu-1)) (UniProt P0DTC2); test: BLI; Octet RED96e; RBD (Wuhan-Hu-1) immobilised on HIS1K biosensors; analyte 50-3.125 nM miniACE2 or 100-3.125 nM MP-5ff in 1x PBS, 0.02% Tween-20, 0.1% BSA; association 1 min, dissociation 3 min; 1:1 binding model
[8] = target: MP-5rc (miniACE2-(EAAAK)5-coiled-coil, trivalent); test: SEC
[9] = target: MP-5rf (miniACE2-(EAAAK)5-foldon, trivalent) (bacteriophage T4); test: SEC

Q: How did the stoichiometry N [1] turn out when “MP-3fc (miniACE2-(GGGGS)3-coiled-coil, trivalent) (designed binder)” was run?
A: 3

Q: How did the stoichiometry N [2] turn out when “MP-3ff (miniACE2-(GGGGS)3-foldon, trivalent) (designed binder)” was run?
A: 3

Q: How did the stoichiometry N [3] turn out when “MP-3rc (miniACE2-(EAAAK)3-coiled-coil, trivalent) (designed binder)” was run?
A: 3

Q: “MP-3rf (miniACE2-(EAAAK)3-foldon, trivalent) (designed binder)” was tested. Which stoichiometry N [4] did it give?
A: 3

Q: With “MP-5fc (miniACE2-(GGGGS)5-coiled-coil, trivalent) (designed binder)” as the substance, how does the stoichiometry N [5] read?
A: 3

Q: “MP-5ff (miniACE2-(GGGGS)5-foldon, trivalent) (designed binder)” was tested. Which stoichiometry N [6] did it give?
A: 3

Q: And the Kd [7]?
A: < 0.001 nM

Q: What about the koff [7] of the same substance?
A: < 1e-07 s⁻¹

Q: “MP-5rc (miniACE2-(EAAAK)5-coiled-coil, trivalent) (designed binder)” was tested. Which stoichiometry N [8] did it give?
A: 3

Q: How did the stoichiometry N [9] turn out when “MP-5rf (miniACE2-(EAAAK)5-foldon, trivalent) (designed binder)” was run?
A: 3

Q: For “miniACE2 (microprotein LCB3) (designed binder)”, which Kd [7] is on record?
A: 1.03 nM

Q: What about the koff [7] of the same substance?
A: 0.000986 s⁻¹
